Results on 5 molecules are retold here after publication PMC6160236, “Disrupted structure and aberrant function of CHIP mediates the loss of motor and cognitive function in preclinical models of SCAR16” (PLoS Genetics, 2018).

The target of data set [1] is T1, CHIP (carboxyl terminus of heat shock 70-interacting protein), recombinant His-tagged wild type (human), Q9UNE7.
T1 chain: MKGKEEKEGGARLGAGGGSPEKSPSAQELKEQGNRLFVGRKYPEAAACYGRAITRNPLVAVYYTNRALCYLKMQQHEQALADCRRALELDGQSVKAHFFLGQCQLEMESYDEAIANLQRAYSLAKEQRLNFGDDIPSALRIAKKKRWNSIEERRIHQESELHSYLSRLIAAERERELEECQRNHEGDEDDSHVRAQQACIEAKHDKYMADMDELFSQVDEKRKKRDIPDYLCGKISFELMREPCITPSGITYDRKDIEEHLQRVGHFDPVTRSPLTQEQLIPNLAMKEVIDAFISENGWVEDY
Briefly: SEC-MALS; GE Superdex 200 column with Wyatt DAWN HELEOS-II and T-Rex refractometer; 100 μl of 0.5 mg/ml of each sample loaded; oligomeric species of each CHIP protein. The settings on record: remark: other sources report otherwise.

Data set [2] has as its target T2, myc-CHIP-K30A (pcDNA3-mycCHIP-K30A) (human), Q9UNE7.
T2 chain: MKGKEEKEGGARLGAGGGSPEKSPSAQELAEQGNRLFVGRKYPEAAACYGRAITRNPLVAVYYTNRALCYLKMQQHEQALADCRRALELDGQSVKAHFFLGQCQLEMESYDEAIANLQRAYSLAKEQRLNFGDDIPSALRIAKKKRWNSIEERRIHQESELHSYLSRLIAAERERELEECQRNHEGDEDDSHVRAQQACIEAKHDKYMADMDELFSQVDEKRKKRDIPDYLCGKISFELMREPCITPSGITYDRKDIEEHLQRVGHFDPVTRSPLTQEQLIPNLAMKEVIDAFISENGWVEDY
Briefly: native gel or EMSA; blue native PAGE (4-16% NativePAGE) of fresh lysates of transfected COS-7 cells, immunoblot with anti-myc. The settings on record: remark: other sources report otherwise.

For data set [3], the target named is T3, myc-CHIP wild type (pcDNA3-mycCHIP) (human), Q9UNE7.
T3 chain: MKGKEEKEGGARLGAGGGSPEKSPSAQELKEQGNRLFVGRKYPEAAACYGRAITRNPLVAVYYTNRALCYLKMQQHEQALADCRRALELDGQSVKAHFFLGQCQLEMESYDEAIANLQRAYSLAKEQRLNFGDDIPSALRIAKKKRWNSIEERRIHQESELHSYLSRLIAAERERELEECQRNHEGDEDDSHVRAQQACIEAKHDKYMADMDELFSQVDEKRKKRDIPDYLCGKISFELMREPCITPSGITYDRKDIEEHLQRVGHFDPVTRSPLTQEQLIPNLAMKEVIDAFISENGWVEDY
Described as above. To be noted: remark: other sources report otherwise.

Data set [4] deals with the molecule itself. Kind of data set: SEC-MALS; GE Superdex 200 column with Wyatt DAWN HELEOS-II and T-Rex refractometer; 100 μl of 0.5 mg/ml of each sample loaded; oligomeric species of each CHIP protein.
Data set [5] addresses T4, CHIP-K30A, recombinant His-tagged (human), Q9UNE7.
T4 chain: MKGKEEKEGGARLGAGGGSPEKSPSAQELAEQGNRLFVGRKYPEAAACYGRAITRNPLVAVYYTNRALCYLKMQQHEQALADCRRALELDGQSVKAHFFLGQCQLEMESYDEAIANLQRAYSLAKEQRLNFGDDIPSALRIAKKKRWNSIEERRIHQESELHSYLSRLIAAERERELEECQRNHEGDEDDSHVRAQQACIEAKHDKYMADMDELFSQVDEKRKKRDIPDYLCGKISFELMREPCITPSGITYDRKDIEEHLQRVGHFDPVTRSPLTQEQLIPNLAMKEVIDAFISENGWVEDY
Described as above. To be noted: remark: other sources report otherwise.

B1: CHIP (carboxyl terminus of heat shock 70-interacting protein), recombinant His-tagged wild type, Q9UNE7 1-303 (enzyme)
chain: MKGKEEKEGGARLGAGGGSPEKSPSAQELKEQGNRLFVGRKYPEAAACYGRAITRNPLVAVYYTNRALCYLKMQQHEQALADCRRALELDGQSVKAHFFLGQCQLEMESYDEAIANLQRAYSLAKEQRLNFGDDIPSALRIAKKKRWNSIEERRIHQESELHSYLSRLIAAERERELEECQRNHEGDEDDSHVRAQQACIEAKHDKYMADMDELFSQVDEKRKKRDIPDYLCGKISFELMREPCITPSGITYDRKDIEEHLQRVGHFDPVTRSPLTQEQLIPNLAMKEVIDAFISENGWVEDY
For the molecule B1, in data set [1], the percent of the protein as 2mer is 69.7%, the percent of the protein as 4mer turned out to be 25.2%, the percent of the protein as 6mer was 4.8% and the stoichiometry N was determined as 2.

B2: myc-CHIP-K30A (pcDNA3-mycCHIP-K30A), Q9UNE7 1-303 (enzyme)
chain: MKGKEEKEGGARLGAGGGSPEKSPSAQELAEQGNRLFVGRKYPEAAACYGRAITRNPLVAVYYTNRALCYLKMQQHEQALADCRRALELDGQSVKAHFFLGQCQLEMESYDEAIANLQRAYSLAKEQRLNFGDDIPSALRIAKKKRWNSIEERRIHQESELHSYLSRLIAAERERELEECQRNHEGDEDDSHVRAQQACIEAKHDKYMADMDELFSQVDEKRKKRDIPDYLCGKISFELMREPCITPSGITYDRKDIEEHLQRVGHFDPVTRSPLTQEQLIPNLAMKEVIDAFISENGWVEDY
In data set [2], B2 registered a stoichiometry N of 2.

B3: myc-CHIP wild type (pcDNA3-mycCHIP), Q9UNE7 1-303 (enzyme)
chain: MKGKEEKEGGARLGAGGGSPEKSPSAQELKEQGNRLFVGRKYPEAAACYGRAITRNPLVAVYYTNRALCYLKMQQHEQALADCRRALELDGQSVKAHFFLGQCQLEMESYDEAIANLQRAYSLAKEQRLNFGDDIPSALRIAKKKRWNSIEERRIHQESELHSYLSRLIAAERERELEECQRNHEGDEDDSHVRAQQACIEAKHDKYMADMDELFSQVDEKRKKRDIPDYLCGKISFELMREPCITPSGITYDRKDIEEHLQRVGHFDPVTRSPLTQEQLIPNLAMKEVIDAFISENGWVEDY
Regarding B3, in data set [3], the stoichiometry N came out at 2.

B4: CHIP-T246M, recombinant His-tagged (enzyme, human, UniProt Q9UNE7 1-303, looked up)
chain: MKGKEEKEGGARLGAGGGSPEKSPSAQELKEQGNRLFVGRKYPEAAACYGRAITRNPLVAVYYTNRALCYLKMQQHEQALADCRRALELDGQSVKAHFFLGQCQLEMESYDEAIANLQRAYSLAKEQRLNFGDDIPSALRIAKKKRWNSIEERRIHQESELHSYLSRLIAAERERELEECQRNHEGDEDDSHVRAQQACIEAKHDKYMADMDELFSQVDEKRKKRDIPDYLCGKISFELMREPCIMPSGITYDRKDIEEHLQRVGHFDPVTRSPLTQEQLIPNLAMKEVIDAFISENGWVEDY
notes: CHIP (gene STUB1), full-length protein with the SCAR16 patient mutation p.T246M in the U-box; T246M is a mutation found in SCAR16 patients; source: Escherichia coli BL21(DE3), purified (HisTrap HP)
As to B4, the “stoichiometry N” value in data set [4] lay within 10 to 12.

B5: CHIP-K30A, recombinant His-tagged, Q9UNE7 1-303 (enzyme)
chain: MKGKEEKEGGARLGAGGGSPEKSPSAQELAEQGNRLFVGRKYPEAAACYGRAITRNPLVAVYYTNRALCYLKMQQHEQALADCRRALELDGQSVKAHFFLGQCQLEMESYDEAIANLQRAYSLAKEQRLNFGDDIPSALRIAKKKRWNSIEERRIHQESELHSYLSRLIAAERERELEECQRNHEGDEDDSHVRAQQACIEAKHDKYMADMDELFSQVDEKRKKRDIPDYLCGKISFELMREPCITPSGITYDRKDIEEHLQRVGHFDPVTRSPLTQEQLIPNLAMKEVIDAFISENGWVEDY
On to B5, for which, in data set [5], the percent of the protein as 2mer was determined as 80.4%, the percent of the protein as 4mer was found to be 16.4%, the percent of the protein as 6mer came to 2.6% and the stoichiometry N stood at 2.
